Test: soluble on expression in E. coli; label from the status in PepcDB or PDB records

Sequence | soluble on expression in E. coli
LNSVGQGEFGGAPFKRFLRGTRIVSGGKLKRMTREKAKQVTVAGVPMPRDAEPRHLLVNGATGTGKSVLLRELAYTGLLRGDRMVIVDPNGDMLSKFGRDKDIILNPYDQRTKGWSFFNEIRNDYDWQRYALSVVPRGKTDEAEEWASYGRLLLRETAKKLALIGTPSMRELFHWTTIATFDDLRGFLEGTLAESLFAGSNEASKALTSARFVLSDKLPEHVTMPDGDFSIRSWLEDPNGGNLFITWREDMGPALRPLISAWVDVVCTSILSLPEEPKRRLWLFIDELASLEKLASLADALTKGRKAGLRVVAGLQSTSQLDDVYGVKEAQTLRASFRSLVVLGGSRTDPKTNEDMSLSLGEHEVERDRYSKNTGKHHSTGRALERVRERVVMPAEIANLPDLTAYVGFAGNRPIAKVPLEIKQFANRQPAFVEGTI | soluble
LQERDIVPVDASYEVKELYVPENKLHLAKTDAETLPALKINKVDMQWVQVLAEGWATPLNGFMREREYLQCLHFDCLLDGGVINLSVPIVLTATHEDKERLDGCTAFALMYEGRRVAILRNPEFFEHRKEERCARQWGTTCKNHPYIKMVMEQGDWLIGGDLQVLDRVYWNDGLDQYRLTPTELKQKFKDMNADAVFAFQLRNPVHNGHALLMQDTHKQLLERGYRRPVLLLHPLGGWTKDDDVPLMWRMKQHAAVLEEGVLNPETTVVAIFPSPMMYAGPTEVQWHCRARMVAGANFYIVGRDPAGMPHPETGKDLYEPSHGAKVLTMAPGLITLEIVPFRVAAYNKKKKRMDYYDSEHHEDFEFISGTRMRKLAREGQKPPEGFMAPKAWTVLTEYYKSLEKA | soluble
LQIFSKEGLLIQEYGEKKRIPVTYDEIPPTLIHALIATEDQRFFEHPGVDVMGLGRAAVSMLKTGTKSQGGSTITMQVARNFFLSRKKTFLRKFNEIMLAIKIDRELSKEKILELYLNRVYLGNRAYGVGAAAMVYFGKSLKDLNLAELAMIAGLPQAPSTQNPIANP | not soluble
LREQPQQNECQLERLDALEPDNRIESEGGLIETWNPNNKQFRCAGVALSRATLQRNALRRPYYSNAPQEIFIQQGNGYFGMVFPGCPETFEEPQESEQGEGRRYRDRHQKVNRFREGDIIAVPTGIVFWMYNDQDTPVIAVSLTDIRSSNNQLDQMPRRFYLAGNHEQEFLQYQHQQGGKQEQENEGNNIFSGFKRDFLEDAFNVNRHIVDRLQGRNEDEEKGAIVKVKGGLSIISPPEKQARHQRGSRQEEDEDEEKQPRHQRGSRQEEEEDEDEERQPRHQRRRGEEEEEDKKERGGSQKGKSRRQGDNGLEETVCTAKLRLNIGPSSSPDIYNPEAGRIKTVTSLDLPVLRWLKLSAEHGSLHKNAMFVPHYNLNANSIIYALKGRARLQVVNCNGNTVFDGELEAGRALTVPQNYAVAAKSLSDRFSYVAFKTNDRAGIARLAGTSSVINNLPLDVVAATFNLQRNEARQLKSNNPFKFLVPARESENRASA | soluble
LSLLGVGAASLYVSDSPQPKMAQSQHDTTIDLSSQKDFFEYSLSGLGEHSLEEIQENIEESISQQNSLGIDVELFQTYLAYKRALSKLEPLEDTTLSLSQLQRLNEAILNLQLEYFNDQQISQLFDEENRLRQLAIEKLVIKTYEQDSDSQQLLLNQALSEQPEYIQKSERNNALTRQLDQTELLSSQDKYLARVELVGEEGAQRLQKLDEQRATFEIELTNYLEKRADILNDEFLDSEQKQLEIANLRKQSFETTQWRRIEALERIHDS | not soluble
LSWKRCAGCGGKIADRFLLYAMDSYWHSRCLKCSSCQAQLGDIGTSSYTKSGMILCRNDYIRLFGNSGACSACGQSIPASELVMRAQGNVYHLKCFTCSTCRNRLVPGDRFHYINGSLFCEHDRPTALINGHLNSGGSGGSGGSGGDVMVVGEPTLMGGEFGDEDERLITRLENTQFDAANGIDDETRESGSIEF | soluble
LTEKQKRFADEYIKCGNATEAARLAGYSSKTANRIATENLSKPVIKGYIDKVLSELEEKRVMGYTEAMQLFTEIARGEMEEEVIVSNGDGFSVVTKSADINQRVSALKEIVKRHVAGGRDKLQEELIQAQIDKLRADT | not soluble
LTGPLMLDTAPNAFDDQYEGCVNKMEEKAPLLLQEDFNMNAKLKVAWEEAKKRWNNIKPSRSYPKGFNDFHGTALVAYTGSIAVDFNRAVREFKENPGQFHYKAFHYYLTRALQLLSNGDCHSVYRGTKTRFHYTGAGSVRFGQFTSSSLSKKVAQSQEFFSDHGTLFIIKTCLGVYIKEFSFRPDQEAVLIPGYEVYQKVRTQGYNEIFLDSPKRKKSNYNCLYS | soluble
LTSTLLRLSTDKIGAIIAIENQDSLESYVNIGYRVTSDFSPELLVTIFYNKQSPLHDGAVIVRDYQIVSVSSYFPMTRQLIDVSYGSRHRSALGLTEKCDAIVFIVSETTGKISVAVRGVIK | not soluble
LVLKVVTVTRNLDPDDTARKKAPPPPKRAPTTALTLRSKSMTSELEELVDKDKPEEIVPASKPSRAAENMAVEPRVATIKQRPSSRCFPAGSDMNSVYERQGIAVMTPTVPGSPKAPFLGIPRGTMRRQKSIDSRIFLSGITEEERQFLAPPMLKFTRSLSMPDTSEDIPPPPQSVPPSPPPPSPTTYNCPKSPTPRVYGTIKPAFNQNSAAKVSPATRSDTVATMMREKGMYFRRELDRYSLDSEDLYSRNAGPQANFRNKRGQMPENPYSEVGKIASKAVYVPAKPARRKGMLVKQSNVEDSPEKTCSIPIPTIIVKEPSTSSSGKSSQGSSMEIDPQAPEPPSQLRPDESLTVSSPFAAAIAGAVRDREKRLEARRNSPAFLSTDLGDEDVGLGPPAPRTRPSMFPEEGDFADEDSAEQLSSPMPSATPREPENHFVGGAEASAPGEAGRPLNSTSKAQGPESSPAVPSASSGTAGPGNYVHPLTGRLLDPSSPLALALSARDRAMKESQQGPKGEAPKADLNKPLYIDTKMRPSLDAGFPTVTRQNTRGPLRRQETENKYETDLGRDRKGDDKKNMLIDIMDTSQQKSAGLLMVHTVDATKLDNALQEEDEKAEVEMKPDSSPSEVPEGVSETEGALQISAAPEPTTVPGRTIVAVGSMEEAVILPFRIPPPPLASVDLDEDFIFTEPLPPPLEFANSFDIPDDRAASVPALSDLVKQKKSDTPQSPSLNSSQPTNSADSKKPASLSNCLPASFLPPPESFDAVADSGIEEVDSRSSSDHHLETTSTISTVSSISTLSSEGGENVDTCTVYADGQAFMVDKPPVPPKPKMKPIIHKSNALYQDALVEEDVDSFVIPPPAPPPPPGSAQPGMAKVLQPRTSKLWGDVTEIKSPILSGPKANVISELNSILQQMNREKLAKPGEGLDSPMGAKSASLAPRSPEIMSTISGTRSTTVTFTVRPGTSQPITLQSRPPDYESRTSGTRRAPSPVVSPTEMNKETLPAPLSAATASPSPALSDVFSLPSQPPSGDLFGLNPAGRSRSPSPSILQQPISNKPFTTKPVHLWTKPDVADWLESLNLGEHKEAFMDNEIDGSHLPNLQKEDLIDLGVTRVGHRMNIERALKQLLDR | soluble
LVRSGRNITMQIIGYMTSHRKQHLEATDVAREFGYGREHFCRLFRKATGKTFKEFLTDLRLDDACRKLSGSSASIASIARECGFPDTRALQTAVQRKYGIRAQEYRERYENR | soluble
LVTKEVEYEDGDTVCKGFIAYHSSASKPLPCVMVAHDWGGRGEGACNKARQLAGMGYIGFAIDMYGNAKLGKDKAEKRALMTPFRENRGKLITRINAAFNKVVQLPEVDSEKVAAIGYCFGGLCVLDLIRSGAPLKGVVSFHGVLLPLEGESNKSLNAKVLILHGYDDPLVPIEQVNQFAIEMTERKVDWQVHVYGQTAHSFTDPGANDDEMGLHYNKLADQRSWQSTQLFLQELF | not soluble
MAAAALREQLNALLSSMFASGLVDEQFQQLQMLQEDGGTPGFVAEVVTLFCDDADRIISELAALLDQPIVDFDKVDAYVHQLKGSSASVGAQKVKFTCMQFRQLCQDKNRDGCIMALAVVRNEFYDLRNKFQTMLQLEQQIQAQQ | soluble
MAAARIPMSDNLPWKTWTPDDLAPPPAEFVPMAESEETIIEEVEPSLEQQLAQLQMQAHEQGYQAGIAEGRQQGHEQGYQEGLAQGLEQGLAEAKAQQAPIHARMQQLVSEFQTTLDALDSVIASRLMQMALEAARQVIGQTPTVDNSALIKQIQQLLQQEPLFSGKPQLRVHPDDLQRVDDMLGATLSLHGWRLRGDPTLHPGGCKVSADEGDLDASVATRWQELCRLAAPGVV | soluble
MAAECATQRAPGSVVELLGKSYPQDDHSNLTRKVLTRVGRNLHNQQHHPLWLIKERVKEHFYKQYVGRFGTPLFSVYDNLSPVVTTWQNFDSLLIPADHPSRKKGDNYYLNRTHMLRAHTSAHQWDLLHAGLDAFLVVGDVYRRDQIDSQHYPIFHQLEAVRLFSKHELFAGIKDGESLQLFEQSSRSAHKQETHTMEAVKLVEFDLKQTLTRLMAHLFGDELEIRWVDCYFPFTHPSFEMEINFHGEWLEVLGCGVMEQQLVNSAGAQDRIGWAFGLGLERLAMILYDIPDIRLFWCEDERFLKQFCVSNINQKVKFQPLSKYPAVINDISFWLPSENYAENDFYDLVRTIGGDLVEKVDLIDKFVHPKTHKTSHCYRITYRHMERTLSQREVRHIHQALQEAAVQLLGVEGRF | soluble
MAAGFGRCCRVLRSISRFHWRSQHTKANRQREPGLGFSFEFTEQQKEFQATARKFAREEIIPVAAEYDKTGEYPVPLIRRAWELGLMNTHIPENCGGLGLGTFDACLISEELAYGCTGVQTAIEGNSLGQMPIIIAGNDQQKKKYLGRMTEEPLMCAYCVTEPGAGSDVAGIKTKAEKKGDEYIINGQKMWITNGGKANWYFLLARSDPDPKAPANKAFTGFIVEADTPGIQIGRKELNMGQRCSDTRGIVFEDVKVPKENVLIGDGAGFKVAMGAFDKTRPVVAAGAVGLAQRALDEATKYALERKTFGKLLVEHQAISFMLAEMAMKVELARMSYQRAAWEVDSGRRNTYYASIAKAFAGDIANQLATDAVQILGGNGFNTEYPVEKLMRDAKIYQIYEGTSQIQRLIVAREHIDKYKN | soluble
MAAGIVASRRLRDLLTRRLTGSNYPGLSISLRLTGSSAQEEASGVALGEAPDHSYESLRVTSAQKHVLHVQLNRPNKRNAMNKVFWREMVECFNKISRDADCRAVVISGAGKMFTAGIDLMDMASDILQPKGDDVARISWYLRDIITRYQETFNVIERCPKPVIAAVHGGCIGGGVDLVTACDIRYCAQDAFFQVKEVDVGLAADVGTLQRLPKVIGNQSLVNELAFTARKMMADEALGSGLVSRVFPDKEVMLDAALALAAEISSKSPVAVQSTKVNLLYSRDHSVAESLNYVASWNMSMLQTQDLVKSVQATTENKELKTVTFSKL | soluble
MAAPAASGLSRQVRSFSTSVVRPFAKLVRPPVQVYGIEGRYATALYSAASKEKKLDQVEKELLRVGQLLKDPKVSLAVLNPYIKRTVKVKSLNDITKREKFSPLTANLMNLLAENGRLGNTQGIISAFSTIMSVHRGEVPCTVTTASPLDDAVLSELKTVLKSFLSPNQILKLEIKTDPSIMGGMIVRIGEKYVDMSAKSKIQKLSKAMREML | soluble
MAAPLIPVLTAPTAAGKTALALRLAREYGLEIVAADAFTVYRGLDLGTAKPTPQERASVPHHLLDVVDVTQSYDVAQYAAQAEAAIVDILARGRLPLVVGGTGFYLSALSRGLPLTPPSDPKMRAALEAELQERGLDALLAEIEQANPAEAARMERNPRRVVRALEVYRAAGRFPGEFGYSPPAFQYQVFAFSPPAAEMEQRVQERTAAMLRAGWPQEAQWLAGQVPPEQEPRPTVWQALGYAEALAVAQGRLSLAGAEQAIALATRQYGKRQLTWMRRQLGAEVQSPDAAEAHLRAFLERSGAPSLEHHHHHH | not soluble
